Experimental data: IntAct's records for PubMed 26524528

Columns and labels:
[1] = molecular target: lmnb1_human LMNB1 (UniProt P20700)
[2] = molecular target: lmnb1_human LMNB1 (UniProt P20700); remark: listed apart in the source
[3] = molecular target: lmnb1_human LMNB1 (UniProt P20700); remark: listed apart in the source

effect of a mutation on the interaction [1] | effect of a mutation on the interaction [2] | effect of a mutation on the interaction [3] | Substance
decreasing interaction strength | disrupting interaction strength |  | Microtubule-associated protein 1 light chain 3 beta (Homo sapiens) (from UniProt Q9GZQ8) G120A
 |  | disrupting interaction strength | Microtubule-associated protein 1 light chain 3 beta (Homo sapiens) (from UniProt Q9GZQ8) R10A;R11A
